{
  "source": "paper PMC4505582",
  "about": "(The Journal of Biological Chemistry, 2015)",
  "binders": {"B1": {"name": "F-ATPase subunit e (natural protein, bovine, UniProt Q00361 1-71, looked up)", "chain": "MVPPVQVSPLIKLGRYSALFLGMAYGAKRYNYLKPRAEEERRLAAEEKKKRDEQKRIERELAEAQEDTILK", "notes": "ATP synthase subunit e, mitochondrial, bovine; endogenous supernumerary membrane subunit of the purified F-ATPase; source: purified from bovine mitochondrial membranes as part of the F-ATPase complex"}, "B2": {"name": "F-ATPase subunit oscp (natural protein, bovine, UniProt P13621 24-213, looked up)", "chain": "FAKLVRPPVQIYGIEGRYATALYSAASKQNKLEQVEKELLRVGQILKEPKMAASLLNPYVKRSVKVKSLSDMTAKEKFSPLTSNLINLLAENGRLTNTPAVISAFSTMMSVHRGEVPCTVTTASALDEATLTELKTVLKSFLSKGQVLKLEVKIDPSIMGGMIVRIGEKYVDMSAKTKIQKLSRAMREIL", "notes": "ATP synthase subunit O (oligomycin sensitivity conferral protein), mitochondrial, bovine; endogenous subunit of the peripheral stalk of the purified F-ATPase; source: purified from bovine mitochondrial membranes as part of the F-ATPase complex"}, "B3": {"name": "F-ATPase subunit ATP8 (natural protein, bovine, UniProt P03929 1-66, looked up)", "chain": "MPQLDTSTWLTMILSMFLTLFIIFQLKVSKHNFYHNPELTPTKMLKQNTPWETKWTKIYLPLLLPL", "notes": "ATP synthase protein 8 (A6L), encoded in mitochondrial DNA, bovine; endogenous membrane subunit of the purified F-ATPase; C terminus at residue 66 as printed; also called A6L; source: purified from bovine mitochondrial membranes as part of the F-ATPase complex"}, "B4": {"name": "F-ATPase subunit DAPIT (diabetes-associated protein in insulin-sensitive tissues) (natural protein, bovine, UniProt Q3ZBI7 1-58, looked up)", "chain": "MAGPEADAQFHFTGIKKYFNSYTLTGRMNCVLATYGSIALIVLYFKLRSKKTPAVKAT", "notes": "DAPIT (diabetes-associated protein in insulin-sensitive tissues), bovine; endogenous supernumerary membrane subunit of the purified F-ATPase; source: purified from bovine mitochondrial membranes as part of the F-ATPase complex"}, "B5": {"name": "F-ATPase subunit f (natural protein, bovine, UniProt Q28851 1-88, looked up)", "chain": "MASVVPLKEKKLLEVKLGELPSWILMRDFTPSGIAGAFQRGYYRYYNKYVNVKKGSIAGLSMVLAAYVFLNYCRSYKELKHERLRKYH", "notes": "ATP synthase subunit f, mitochondrial, bovine; endogenous supernumerary membrane subunit of the purified F-ATPase; source: purified from bovine mitochondrial membranes as part of the F-ATPase complex"}, "B6": {"name": "F-ATPase subunit d (natural protein)", "chain": "not shown", "notes": "ATP synthase subunit d, mitochondrial, bovine; endogenous subunit of the peripheral stalk of the purified F-ATPase; source: purified from bovine mitochondrial membranes as part of the F-ATPase complex"}, "B7": {"name": "F-ATPase subunit F6 (natural protein, bovine, UniProt P02721 33-108, looked up)", "chain": "NKELDPVQKLFVDKIREYRTKRQTSGGPVDAGPEYQQDLDRELFKLKQMYGKADMNTFPNFTFEDPKFEVVEKPQS", "notes": "ATP synthase coupling factor 6, mitochondrial, bovine; endogenous subunit of the peripheral stalk of the purified F-ATPase; printed length 76 amino acids; source: purified from bovine mitochondrial membranes as part of the F-ATPase complex"}},
  "settings_in_all_cases": "both partners purified",
  "key": {"F-ATPase subunit f": {"biological_target": "B5", "test": "cross-linking; purified monomeric bovine F-ATPase (2 μM, 1.16 mg/ml) in detergent and phospholipids reacted with 2 mM DSS(d0/d12), pH 8.0, 2 h; tryptic digest, cation exchange fractionation, linked lysines identified by mass spectrometry"}, "F-ATPase α-subunit": {"biological_target": "T1, F-ATPase α-subunit (bovine, UniProt P19483 44-553)", "T1 construct": "ATP synthase subunit alpha, mitochondrial, bovine; endogenous subunit of the F1 domain of the purified F-ATPase (three copies in the enzyme); also called subunit α; source: purified from bovine mitochondrial membranes as part of the F-ATPase complex", "T1 sequence (P19483 44-553)": "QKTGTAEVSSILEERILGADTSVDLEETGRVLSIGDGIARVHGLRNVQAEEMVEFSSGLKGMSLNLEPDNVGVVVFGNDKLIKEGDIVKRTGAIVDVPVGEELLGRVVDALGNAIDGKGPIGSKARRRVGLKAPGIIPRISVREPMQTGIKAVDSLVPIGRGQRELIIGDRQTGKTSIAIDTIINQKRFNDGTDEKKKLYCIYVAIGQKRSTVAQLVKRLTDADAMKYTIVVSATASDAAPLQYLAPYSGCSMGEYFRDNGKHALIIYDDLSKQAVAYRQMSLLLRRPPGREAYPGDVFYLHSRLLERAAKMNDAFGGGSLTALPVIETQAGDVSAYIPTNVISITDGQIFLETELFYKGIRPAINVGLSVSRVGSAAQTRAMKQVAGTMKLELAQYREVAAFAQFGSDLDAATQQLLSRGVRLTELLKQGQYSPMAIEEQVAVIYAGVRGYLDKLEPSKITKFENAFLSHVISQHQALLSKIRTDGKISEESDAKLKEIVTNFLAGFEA", "test": "cross-linking; purified monomeric bovine F-ATPase (2 μM, 1.16 mg/ml) in detergent and phospholipids reacted with 2 mM DSS(d0/d12), pH 8.0, 2 h; tryptic digest, cation exchange fractionation, linked lysines identified by mass spectrometry"}, "F-ATPase subunit b [1]": {"biological_target": "T2, F-ATPase subunit b (bovine, UniProt P13619 43-256)", "T2 construct": "ATP synthase subunit b, mitochondrial, bovine; endogenous subunit of the peripheral stalk of the purified F-ATPase; source: purified from bovine mitochondrial membranes as part of the F-ATPase complex", "T2 sequence (looked up)": "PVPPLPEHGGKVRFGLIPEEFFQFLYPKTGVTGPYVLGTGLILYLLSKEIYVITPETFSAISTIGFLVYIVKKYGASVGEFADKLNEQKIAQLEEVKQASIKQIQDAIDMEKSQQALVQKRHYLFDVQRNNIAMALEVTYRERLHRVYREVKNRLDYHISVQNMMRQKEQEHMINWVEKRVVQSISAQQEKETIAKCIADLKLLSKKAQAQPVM", "test": "cross-linking; purified monomeric bovine F-ATPase (2 μM, 1.16 mg/ml) in detergent and phospholipids reacted with 2 mM DSS(d0/d12), pH 8.0, 2 h; tryptic digest, cation exchange fractionation, linked lysines identified by mass spectrometry"}, "F-ATPase subunit d [2]": {"biological_target": "B6", "test": "cross-linking; purified monomeric bovine F-ATPase (2 μM, 1.16 mg/ml) in detergent and phospholipids reacted with 2 mM DSS(d0/d12), pH 8.0, 2 h; tryptic digest, cation exchange fractionation, linked lysines identified by mass spectrometry"}, "F-ATPase subunit F6": {"biological_target": "B7", "test": "cross-linking; purified monomeric bovine F-ATPase (2 μM, 1.16 mg/ml) in detergent and phospholipids reacted with 2 mM DSS(d0/d12), pH 8.0, 2 h; tryptic digest, cation exchange fractionation, linked lysines identified by mass spectrometry"}, "[3]": {"biological_target": "T3, F-ATPase subunit 6.8PL (6.8-kDa proteolipid) (bovine, UniProt P14790 1-60)", "T3 construct": "6.8 kDa mitochondrial proteolipid, bovine; endogenous supernumerary membrane subunit of the purified F-ATPase; source: purified from bovine mitochondrial membranes as part of the F-ATPase complex", "test": "cross-linking; purified monomeric bovine F-ATPase (2 μM, 1.16 mg/ml) in detergent and phospholipids reacted with 2 mM DSS(d0/d12), pH 8.0, 2 h; tryptic digest, cation exchange fractionation, linked lysines identified by mass spectrometry"}, "F-ATPase subunit g": {"biological_target": "T4, F-ATPase subunit g (bovine, UniProt Q28852 1-103)", "T4 construct": "ATP synthase subunit g, mitochondrial, bovine; endogenous supernumerary membrane subunit of the purified F-ATPase; source: purified from bovine mitochondrial membranes as part of the F-ATPase complex", "T4 sequence (looked up)": "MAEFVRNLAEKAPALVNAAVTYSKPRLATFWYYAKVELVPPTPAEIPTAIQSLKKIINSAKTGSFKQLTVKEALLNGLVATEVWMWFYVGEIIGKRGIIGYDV", "test": "cross-linking; purified monomeric bovine F-ATPase reacted with BS^3(d0/d12) at the same concentration and under the same conditions as DSS; tryptic digest, linked lysines identified by mass spectrometry"}, "F-ATPase subunit b [4]": {"biological_target": "T2, F-ATPase subunit b", "test": "cross-linking; purified monomeric bovine F-ATPase reacted with BS^3(d0/d12) at the same concentration and under the same conditions as DSS; tryptic digest, linked lysines identified by mass spectrometry"}, "F-ATPase subunit b [5]": {"biological_target": "T2, F-ATPase subunit b", "test": "cross-linking; purified monomeric bovine F-ATPase (2 μM, 1.16 mg/ml) in detergent and phospholipids reacted with 2 mM DSS(d0/d12), pH 8.0, 2 h; tryptic digest, cation exchange fractionation, linked lysines identified by mass spectrometry", "remark": "listed apart in the source"}, "F-ATPase subunit d [6]": {"biological_target": "B6", "test": "cross-linking; purified monomeric bovine F-ATPase (2 μM, 1.16 mg/ml) in detergent and phospholipids reacted with 2 mM DSS(d0/d12), pH 8.0, 2 h; tryptic digest, cation exchange fractionation, linked lysines identified by mass spectrometry", "remark": "listed apart in the source"}},
  "data": [
    {"binder": "B1", "values": [
      {"measurement": "binding result", "setting": "F-ATPase subunit f", "value": "binds"}
    ]},
    {"binder": "B2", "values": [
      {"measurement": "binding result", "setting": "F-ATPase α-subunit", "value": "binds"}
    ]},
    {"binder": "B3", "values": [
      {"measurement": "binding result", "setting": "F-ATPase subunit b [1]", "value": "binds"},
      {"measurement": "binding result", "setting": "F-ATPase subunit d [2]", "value": "binds"},
      {"measurement": "binding result", "setting": "F-ATPase subunit F6", "value": "binds"}
    ]},
    {"binder": "B4", "values": [
      {"measurement": "binding result", "setting": "[3]", "value": "binds"}
    ]},
    {"binder": "B5", "values": [
      {"measurement": "binding result", "setting": "F-ATPase subunit g", "value": "binds"}
    ]},
    {"binder": "B6", "values": [
      {"measurement": "binding result", "setting": "F-ATPase subunit b [4]", "value": "binds"}
    ]},
    {"binder": "B7", "values": [
      {"measurement": "binding result", "setting": "F-ATPase subunit b [5]", "value": "binds"},
      {"measurement": "binding result", "setting": "F-ATPase subunit d [6]", "value": "binds"}
    ]}
  ]
}
